Columns and labels:
Assay in all cases: SPR
[1] = target: T1, Stapled peptide 1907, P49023; details: chain shown with the change; right panel; peptide concentration not given
T1 chain: NL

[2] = target: T2, Peptide 2013, unstapled version of 1907, P49023; details: chain shown with the change; right panel; peptide concentration not given
T2 chain: NL

[3] = target: T3, Paxillin LD2 peptide (141-…-153); details: chain shown with the change, right panel, peptide concentration not given
T3 chain: NLSELDRLLLELN

B1: Biotinylated AviTag FAK FAT protein, Q05397 I936E; L994E (protein)
chain: MAAAYLDPNLNHTPNSSTKTHLGTGMERSPGAMERVLKVFHYFESNSEPTTWASIIRHGDATDVRGIIQKIVDSHKVKHVACYGFRLSHLRSEEVHWLHVDMGVSSVREKYELAHPPEEWKYELRIRYLPKGFLNQFTEDKPTLNFFYQQVKSDYMLEIADQVDQEIALKLGCLEIRRSYWEMRGNALEKKSNYEVLEKDVGLKRFFPKSLLDSVKAKTLRKLIQQTFRQFANLNREESILKFFEILSPVYRFDKECFKCALGSSWIISVELAIGPEEGISYLTDKGCNPTHLADFTQVQTIQYSNSEDKDRKGMLQLKIAGAPEPLTVTAPSLTIAENMADLIDGYCRLVNGTSQSFIIRPQKEGERALPSIPKLANSEKQGMRTHAVSVSETDDYAEIIDEEDTYTMPSTRDYEIQRERIELGRCIGEGQFGDVHQGIYMSPENPALAVAIKTCKNCTSDSVREKFLQEALTMRQFDHPHIVKLIGVITENPVWIIMELCTLGELRSFLQVRKYSLDLASLILYAYQLSTALAYLESKRFVHRDIAARNVLVSSNDCVKLGDFGLSRYMEDSTYYKASKGKLPIKWMAPESINFRRFTSASDVWMFGVCMWEILMHGVKPFQGVKNNDVIGRIENGERLPMPPNCPPTLYSLMTKCWAYDPSRRPRFTELKAQLSTILEEEKAQQEERMRMESRRQATVSWDSGGSDEAPPKPSRPGYPSPRSSEGFYPSPQHMVQTNHYQVSGYPGSHGITAMAGSIYPGQASLLDQTDSWNHRPQEIAMWQPNVEDSTVLDLRGIGQVLPTHLMEERLIRQQQEMEEDQRWLEKEERFLKPDVRLSRGSIDREDGSLQGPIGNQHIYQPVGKPDPAAPPKKPPRPGAPGHLGSLASLSSPADSYNEGVKLQPQEISPPPTANLDRSNDKVYENVTGLVKAVEEMSSKIQPAPPEEYVPMVKEVGLALRTLLATVDETIPLLPASTHREIEMAQKLLNSDEGELINKMKLAQQYVMTSLQQEYKKQMLTAAHALAVDAKNLLDVIDQARLKMLGQTRPH
ratio to parent [1]: 238 | ratio to parent [2]: 33 | ratio to parent [3]: 4 | response ([3]; plateau of the sensorgram near the end of injection (about 75 s), parent: est. 58, read off a plot): 14 RU

Reference: PMC11871066, “Structure-based discovery of hydrocarbon-stapled paxillin peptides that block FAK scaffolding in cancer” (Nature Communications, 2025)
